Key:
biot-RSV-F wt [1] = molecular target: T1, biot-RSV-F wt (respiratory syncytial virus (RSV)); test: BLI, SA sensor loaded with biot-RSV-F wt, mAb 5 ug/ml, 4 min association, 6 min dissociation
[2] = molecular target: T2, RSV F expressed on transfected Expi293F cells (respiratory syncytial virus (RSV)); test: flow cytometry, transfected Expi293F cells, fixed and permeabilised
[3] = molecular target: T3, RSV fusion glycoprotein (RSV-F), pre-fusion conformation, recombinant protein loaded on sensors (respiratory syncytial virus (RSV), …); test: same manner as Experiment 1 (Example 6, Experiment 4)
T3 construct: also called RSV-F wt; RSV-F protein

[4] = molecular target: T4, MPV F D280N mutant expressed on Expi293F transfected cells (metapneumovirus (MPV), strain ); test: FACS on Expi293F cells transfected with MPV-F D280N; mouse serum taken 2 h after injection
T4 construct: whole, on cells; also called MPV D280N F; D280N F

[5] = molecular target: T4, MPV F D280N mutant expressed on …; test: FACS on Expi293F cells transfected with MPV-F D280N; mouse serum taken 56 d after injection
biot-RSV-F wt [6] = molecular target: T1, biot-RSV-F wt; test: BLI (Octet), biotinylated F on SA sensors, mAb 5 µg/ml
biot-RSV-F wt [7] = molecular target: T1, biot-RSV-F wt; test: BLI, SA sensor loaded with biot-RSV-F wt, mAb 5 ug/ml, 4 min association, 6 min dissociation; remark: listed apart in the source
[8] = molecular target: T2, RSV F expressed on transfected Expi293F …; test: flow cytometry, transfected Expi293F cells, fixed and permeabilised; remark: listed apart in the source
[9] = molecular target: T3, RSV fusion glycoprotein (RSV-F), …; test: method not said in the sentence; RSV-A as printed
[10] = molecular target: RSV A Randall fusion glycoprotein (F) (RSV A, strain Randall); test: cell-based or functional assay
[11] = molecular target: fusion glycoprotein (F) of RSV A/A2/61 (respiratory syncytial virus A/A2/61, UniProt P03420 26-574); test: cell-based or functional assay
RSV-B B9320 F protein = RSV-B B9320 F protein (RSV B, strain B9320); test: cell-based or functional assay
[12] = molecular target: fusion glycoprotein (F) of RSV B/9727 (respiratory syncytial virus B/9727); test: cell-based or functional assay
[13] = molecular target: T5, RSV fusion glycoprotein (RSV-F) (respiratory syncytial virus); test: SPR; F protein loaded on streptavidin sensors, mAb in solution
T5 construct: also called RSV-F wt
Protocol: (§1) Binding affinity of mAbs for RSV-F protein, MPV-F D280 protein, and MPV-F N280 F variant protein was assessed using surface plasmon resonance (SPR).

[14] = molecular target: T6, MPV fusion glycoprotein without the D280N mutation (MPV-F D280) (metapneumovirus); test: as above
T6 construct: also called MPV F Non-D280N; MPV-F wt
Protocol: as §1

[15] = molecular target: T7, MPV fusion glycoprotein with the D280N mutation (MPV-F N280) (metapneumovirus); test: as above
T7 construct: also called MPV F D280N; MPV-F D280N
Protocol: as §1

[16] = molecular target: T5, RSV fusion glycoprotein (RSV-F); test: biolayer interferometry (BLI), rIgG1 with M428L/N434S
[17] = molecular target: T6, MPV fusion glycoprotein without the …; test: as above
[18] = molecular target: T7, MPV fusion glycoprotein with the D280N …; test: as above
[19] = molecular target: fusion glycoprotein (F) of MPV A1/6621 (metapneumovirus A1/6621); test: cell-based or functional assay
DS-Cav1 RSV F = molecular target: T8, DS-Cav1 RSV F (respiratory syncytial virus); test: ELISA on DS-Cav1 RSV F
T8 construct: also called DC-VCav1

[20] = molecular target: fusion glycoprotein (F) of the MPV (non-D280N) used in the GFP-based neutralization assay of Table 23 (metapneumovirus); test: cell-based or functional assay
[21] = molecular target: fusion glycoprotein (F) of the RSV used in the GFP-based neutralization assay of Table 23 (respiratory syncytial virus); test: cell-based or functional assay

B1: MPK51-v1.1-rIgG1m17,1-LS (antibody, V domains shown)
VH: QVQLVESGGGLVKPGGSLRLSCAASGFRISGYYMIWVRQAPGKGLEWISAISGMSSYITYADSVKGRFTVSRDNGQNSLFLEMKSLRGEDTAVYFCAREEVPSPGPFDLWGQGTPVTVSS
VL: QSVVTQPPSVSGAPGQRVTIFCTGSTSNIGAGYDVHWYQHLPGTAPRLLIFRNNNRPSGVPDRFSGFKSGTSASLAIIGLQVEDEADYYCQSYDRNMDGWAFGGGTKLTVL
notes: called the parental mAb (v1.1)
Kd (biot-RSV-F wt [1]): < 1 pM
Binding (FACS) relative to parental mAb MPK51-v1.1 [2]: 1

B2: MPK36-v3 (antibody, V domains shown)
VH: EVQLVESGGGLVKPGGSLRLSCAASFTISGYYMIWIRQAPGKGLEWISYISGSSTYTNYADSVKGRFTISRDNGQNTLYLHMTSLRADDTALYYCATEQTPSPGPFDLWGQGTLVTVSS
VL: QTVVTQPPSVSGAPGQRVTISCSGTSSNIGAGYDVHWYQQFPGTSPKLLIYRNFNRPSGVPDRFSGSKSGSSASLAIAGLQAEDEADYYCQSYDKSLDGWVFGGGTKVTVL
notes: also called MPK36-v3-rIgG1-LS
Kd [3]: ~1 pM

B3: MPK190 (antibody, V domains shown)
VH: EVQLVESGGGLVKPGGSLTLSCAASGFSISGYGMNWVRQAPGRGLEWVASISASSTYIYYADSMKGRFTISRDNGKTSLYLQMKSLRAEDTAVYYCARAPIEPPYFDLWGRGTLVTVSS
VL: QSVLTQPPSVSGAPGQRVTISCTGSNSNIGAGYDVHWYQHLPGKAPKVLIYGNNNRPSVVPDRFSGSNSGASASLAISGLQAEDEADYFCQSYDRRLSGPIFGGGTKLTVL
notes: Tested as MPK190-rIgG1-LS (IgG1 with M428L/N434S); also called MPK190-rIgG1-LS; MPK190-rIgG1-LS(4B6)
EC50 [4]: 0.062 µg/mL
EC50 [5]: 0.084 µg/mL

B4: MPK77-v1.1-rIgG1m17,1-LS (antibody, V domains shown)
VH: QVQLVESGGGLVKPGGSLRLSCAASKSFSGYYMIWIRQAPGRGLEWIADISGSSTYTDYADSVKGRFTISRDNTRNTLYLQMNSLRPEDTAVYYCATEQVPSPGPFDLWGPGTLVTVSS
VL: QSVLTQPPSVSGAPGQRVIISCTGSSSNIGAGYDVHWYQQFPGTSPKLLIYRNTNRPSGVPDRFSGFKSGASAALAITGLQAEDEADYYCQSYDRSLSGWAFGGGTKVTVL
notes: called the parental mAb (v1.1); also called MPK77-v1.1-rIgG1-LS
Kd (biot-RSV-F wt [6]): < 1 pM
Kd (biot-RSV-F wt [7]): < 1 pM
Binding (FACS) relative to parental mAb MPK77-v1.1 [8]: 1

B5: MPK65-v2 (antibody, human IgG1, V domains shown)
VH: QVPLVQSGAEVKKPGESLKISCKGSGYSFINYWIGWVRQMPGKGLEWMGVIYPFDSDTKYSPSFQGHVTISADKSSNTAYVQWSSLKASDTAMYYCARFTFGIAVVTDDVSGEGQAFEIWGQGTMVTVSS
VL: EIVMMQSPATLSVSPGERATLSCRASQSVAGNLAWYQQRPGQAPRLLIYGASTRATGVPARFSGSGSETEFTLTISSLQSEDFAVYYCHQYSNWPQAFGQGTRLDIK
notes: also called MPK65-v2-rIgG1-LS
Kd [9]: < 100 pM

B6: MPH12 (antibody, IgG1, V domains shown)
VH: QVQLVESGGGLVKPGGSLRLSCVASGFTFSGFYMKWIRQAPGKGLEWVSSISASGSYTNYADSVEGRFTVSRDNAKNSLFLLMSSLRAEDTAVYYCARGDSYCGASACHGEFFHKWGQGTLVTVSS
VL: QSVLTQPPSVSGAPGQRVTISCTGSDSNIGADFDVHWYQQLPGTAPKLLIYGNINRPSGVPDRFSGSRSGTSAFLAITRLQAEDEADYYCQSYDRSLHYVFGAGTKVTVL
notes: also called WT; parental MPH12-wt
RSV IC50 (ng/ml), neutralization of A/Randall [10]: 23.1 ng/mL
RSV IC50 (ng/ml), neutralization of A/A2 [11]: 142 ng/mL
RSV IC50 (ng/ml), neutralization of B/9320 (RSV-B B9320 F protein): 3.29 ng/mL
RSV IC50 (ng/ml), neutralization of B/9727 [12]: 19.9 ng/mL
Kd [13]: 750 pM
Kd [14]: 1 pM
Kd [15]: 1700 pM
Kd [16]: 420 pM
Kd [17]: 26 pM
Kd [18]: 1100 pM
MPV IC50 (nM), neutralization of MPV A1/6621 [19]: 0.0671 nM
EC50 (DS-Cav1 RSV F): 0.0326 µg/mL
MPV IC50 (ng/mL), GFP-based in vitro neutralization [20]: 24.6 ng/mL
RSV IC 50 (ng/mL), GFP-based in vitro neutralization [21]: 47.7 ng/mL
